Values belong to the molecule of their own block, whether it stands above or below them.
What was measured:
[1] = target: T1, recombinant IL-3Rα ectodomain (Homo sapiens, UniProt P26951); test: SPR (ProteOn) on recombinant IL-3Rα ectodomain; assay type: binding
T1 construct: Immobilisation of recombinant IL-3Rα ectodomain (Sino Biologicals) was done until 761 RU; purchased Sino Biologicals
T1 sequence (P26951 19-305 limits assumed): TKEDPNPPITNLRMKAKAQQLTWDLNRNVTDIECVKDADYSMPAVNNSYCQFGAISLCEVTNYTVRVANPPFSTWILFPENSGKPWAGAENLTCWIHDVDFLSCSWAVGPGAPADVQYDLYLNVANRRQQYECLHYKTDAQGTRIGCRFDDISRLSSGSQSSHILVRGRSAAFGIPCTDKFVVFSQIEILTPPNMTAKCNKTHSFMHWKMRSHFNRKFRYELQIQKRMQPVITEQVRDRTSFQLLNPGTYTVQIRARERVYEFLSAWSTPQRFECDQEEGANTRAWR
Description: The affinities of CD123 specific Nanobodies were further investigated via Surface Plasmon Resonance (SPR) at ProteOn. Immobilisation of recombinant IL-3Rα ectodomain (Sino Biologicals) was done until 761 RU. The Nanobodies were applied at a highest concentration of 1 μM, followed by a three-fold titration, covering 5 further concentrations ranging from 1 μM to 4.1 nM. These were then applied in a single injection cycle, utilising the ProteOn's specific one-shot kinetics approach for kinetic analysis. Evaluation of the association/dissociation data was performed by fitting a 1:1 interaction model (Langmuir binding model). […] For CD123 Nanobodies the obtained KD values correlated well with the apparent affinities retrieved by cell binding EC50 values (see Table 3).

[2] = target: T2, human IL-23R extracellular domain Fc-fusion (Homo sapiens, UniProt Q5VWK5); test: SPR (Biacore T100) on IL-23R-Fc; assay type: binding
T2 construct: Fc-fusions of human IL12Rβ1, IL12Rβ2 and IL-23R extracellular domains; purchased R&D Systems #1400-IR
T2 sequence (Q5VWK5 24-355 limits assumed): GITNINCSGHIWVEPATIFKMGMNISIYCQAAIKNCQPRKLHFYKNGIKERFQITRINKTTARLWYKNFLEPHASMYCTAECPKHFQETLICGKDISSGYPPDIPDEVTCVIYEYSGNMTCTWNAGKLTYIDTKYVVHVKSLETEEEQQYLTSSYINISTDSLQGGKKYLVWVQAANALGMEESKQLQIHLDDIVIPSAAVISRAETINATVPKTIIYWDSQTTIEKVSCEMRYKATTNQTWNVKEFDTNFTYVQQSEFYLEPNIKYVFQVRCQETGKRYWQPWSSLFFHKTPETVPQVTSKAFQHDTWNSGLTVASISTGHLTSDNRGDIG
Description: (§1) The precise binding affinities of the purified Nanobodies were determined in a multi-cycle kinetic analysis using Surface Plasmon Resonance analysis (Biacore T100) on Fc-fusions of human IL12Rβ1, IL12Rβ2 and IL-23R extracellular domains (R&D Systems, #839-B1, #1959-B2, #1400-IR). Sensorchips CM5 were immobilized with anti-hIgG antibody (GE Healthcare, BR-1008-39), after which receptors were captured at 5 μg/ml protein and contact time of 120 seconds. Running buffer used was HBS-EP+ (GE Healthcare, BR-1006-69) at 25° C., with a flow-rate of […]. For immobilization by amine coupling, EDC/NHS was used for activation and ethanolamine HCl for deactivation (Biacore, amine coupling kit). Nanobodies were evaluated at a concentration range between 1.37 nM and 3 μM. Nanobodies were allowed to associate for 2 min and to dissociate for 15 min at a flow rate of […]. In between injections, the surfaces were regenerated with a 3 min pulse of 3M MgCl2 and 2 min stabilization period. Evaluation of the association/dissociation data was performed by fitting a 1:1 interaction model (Langmuir binding model) by Biacore TWO software v2.0.3.

hCEACAM5 = target: T3, hCEACAM5 (Homo sapiens, UniProt P06731); test: SPR (Biacore T100) on hCEACAM-5; assay type: binding
T3 construct: purchased R&D Systems 4128-CM
T3 sequence (P06731 35-676): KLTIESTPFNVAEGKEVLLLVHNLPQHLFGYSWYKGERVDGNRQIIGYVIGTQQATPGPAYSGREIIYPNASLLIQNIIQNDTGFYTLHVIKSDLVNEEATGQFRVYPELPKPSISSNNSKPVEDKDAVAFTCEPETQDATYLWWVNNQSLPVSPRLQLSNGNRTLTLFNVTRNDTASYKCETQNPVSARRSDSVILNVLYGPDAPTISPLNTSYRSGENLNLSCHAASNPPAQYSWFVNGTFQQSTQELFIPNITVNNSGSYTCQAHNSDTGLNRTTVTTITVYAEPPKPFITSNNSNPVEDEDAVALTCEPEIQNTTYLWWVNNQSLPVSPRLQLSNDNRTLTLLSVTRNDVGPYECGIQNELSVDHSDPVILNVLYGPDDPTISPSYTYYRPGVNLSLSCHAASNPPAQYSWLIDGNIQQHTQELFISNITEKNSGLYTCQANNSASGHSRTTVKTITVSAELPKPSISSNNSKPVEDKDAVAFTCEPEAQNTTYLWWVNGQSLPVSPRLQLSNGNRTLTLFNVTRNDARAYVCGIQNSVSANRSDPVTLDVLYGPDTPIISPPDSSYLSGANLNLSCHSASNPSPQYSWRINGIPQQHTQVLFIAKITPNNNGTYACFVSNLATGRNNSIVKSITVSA
Description: In between injections, the surfaces were regenerated with a 5 sec pulse of 10 mM Glycine-HCl pH1.5 and 1 min stabilization period. Evaluation of the association/dissociation data was performed by fitting a 1:1 interaction model (Langmuir binding model) by Biacore T100 software v2.0.3. The affinity constant KD was calculated from resulting association and dissociation rate constants ka and kd and are shown in Table 4.2. The observed affinity of the NbCEA5 Nanobody (designated as CEA#1) and humanised variant (CEA#2) was in line with the reported value.

[3] = test system: CD8+/CD4− gated and CD4+ gated T cells; test: Multi-colour FACS on TH1 activated T cells gated for CD8 or CD4; assay type: binding, human; settings: donor D838; anti-flag-APC detection
Description: To elucidate if CD4-IL12R bispecific polypeptides preferentially bind to the CD4+/IL12R+ TH1 cell subset within the pool of T cells, Nanobody binding was analysed to a pool of activated T cells gated for either CD8 (detected by Anti-hu CD8 PE-Cy7 conjugated monoclonal antibody (BD 557746) or CD4 (detected by Anti-hu CD4 alexa Fluor 488-conjugated polyclonal antibody (R&D FAB8165G) in a multi-colour FACS experiment. Nanobody binding to the CD8+/CD4− gated cells and to CD4+ gated cells was determined using anti-flag-APC (Prozyme PJ255) detection. In this experiment TH1 activated T cells from the same donor (D838) as shown in FIG. 3.6 were used.

[4] = target: T4, human IL12Rβ2 extracellular domain Fc-fusion (Homo sapiens, UniProt Q99665); test: SPR (Biacore T100) on IL12Rβ2-Fc; assay type: binding
T4 construct: Fc-fusions of human IL12Rβ1, IL12Rβ2 and IL-23R extracellular domains; purchased R&D Systems #1959-B2
T4 sequence (Q99665 24-622 limits assumed): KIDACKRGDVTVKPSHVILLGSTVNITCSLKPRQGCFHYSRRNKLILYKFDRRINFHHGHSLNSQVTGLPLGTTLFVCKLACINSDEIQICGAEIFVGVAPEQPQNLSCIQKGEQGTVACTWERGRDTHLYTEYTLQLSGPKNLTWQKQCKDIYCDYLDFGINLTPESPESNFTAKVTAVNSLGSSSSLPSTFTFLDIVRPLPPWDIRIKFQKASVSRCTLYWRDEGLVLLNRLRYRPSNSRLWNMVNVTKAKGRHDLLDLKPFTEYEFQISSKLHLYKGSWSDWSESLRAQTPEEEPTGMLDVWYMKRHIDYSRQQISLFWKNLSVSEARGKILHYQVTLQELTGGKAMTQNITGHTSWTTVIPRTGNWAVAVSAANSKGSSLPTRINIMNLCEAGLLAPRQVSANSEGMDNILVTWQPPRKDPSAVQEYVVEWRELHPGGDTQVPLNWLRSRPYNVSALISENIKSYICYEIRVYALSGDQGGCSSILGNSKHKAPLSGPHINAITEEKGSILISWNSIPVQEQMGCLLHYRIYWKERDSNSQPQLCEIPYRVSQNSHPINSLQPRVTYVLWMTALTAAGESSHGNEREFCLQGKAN
Description: as §1

B1: 50F07: CD123 building block, SEQ ID NO: 12 (protein)
VHH: EVQLVESGGGLVQPGGSLRLSCTGSGSTFSINAMGWYRQAPGKQRELVAAITSGGRTNYADSVKGRFTISRDNSKNTVYLQMNSLRPEDTAVYYCNARISAGTAFWLWSDYEYWGLGTLVTVSS
SPR - IL-3Ra ka [1]: 102000 M⁻¹ s⁻¹ | SPR - IL-3Ra kd [1]: 0.00758 s⁻¹

B5: 55C05: CD123 building block, SEQ ID NO: 11 (protein)
VHH: EVQLVESGGGLVPAGDSLRLSCVASGRSLNTYTMGWFRQAPGKECEFVAAINWNGVYRDYADSAKGRFTASRDNAMNTVFLQMNSLKPEDTAVYFCATATQGWDRHTEPSDFGSWGLGTQVTVSS
SPR - IL-3Ra ka [1]: 126000 M⁻¹ s⁻¹ | SPR - IL-3Ra kd [1]: 0.00741 s⁻¹

B6: 51D09: CD123 building block, SEQ ID NO: 10 (protein)
VHH: EVQLVESGGGLVQPGGSLRLSCAASGSIFSGNTMGWYRQAPGKQRELVAAISSGGSTDYADSVKGRFTISRDNSKNTVYLQMNSLRPEDTAVYYCNAAILLYRLYGYEEGDYWGLGTLVTVSS
SPR - IL-3Ra ka [1]: 37800 M⁻¹ s⁻¹ | SPR - IL-3Ra kd [1]: 0.000516 s⁻¹

B7: 55F03: CD123 building block, SEQ ID NO: 13 (protein)
VHH: EVQLVESGGGLVQAGGPLRLSCAASGRTFSSYVMGWFRQAPGKEREFVAAIYWSNGKTQYTDSVKGRFTISGDNAKNTVYLQMNSLNPEDTAVYYCVADKDETGFRTLPIAYDYWGLGTQVTVSS
SPR - IL-3Ra ka [1]: 42500 M⁻¹ s⁻¹ | SPR - IL-3Ra kd [1]: 0.00487 s⁻¹

B10: 55B04: CD123 building block, SEQ ID NO: 9 (protein)
VHH: EVQLVESGGGLVQPGGSLRLSCAASGINFRFNSMGWWRRRAPGKEREWVAAITSGDITNYRDSVRGRFTISRDNVKNTVYLQMNTLKLEDTAVYYCNTFPPIADYWGLGTQVTVSS
SPR - IL-3Ra ka [1]: 504000 M⁻¹ s⁻¹ | SPR - IL-3Ra kd [1]: 0.00794 s⁻¹

The next lines start with results.

Binding kinetics (SPR) ka (1/Ms), IL-23R [2]: 730000 M⁻¹ s⁻¹ | Binding kinetics (SPR) kd (1/s), IL-23R [2]: 0.0081 s⁻¹
B2: IL23R#19: IL-23R specific ligand competing Nanobody (protein)
VHH: EVQLVESGGGLVQPGGSLTLSCVASGRTFSTDVMGWFRQAPGKEREFVAAHRTSGISTVYAASVKGRFTISRDNAKNTVYLGMKSLKPEDTAVYVCAAGSDASGGYDYWGQGTLVTVSS

hCEACAM5 ka (hCEACAM5): 1.1e+06 M⁻¹ s⁻¹ | hCEACAM5 kd (hCEACAM5): 0.0033 s⁻¹
B3: CEA#5: NbCEA5(K43Q, G47A, T73N, V78L) (protein)
VHH: EVQLVESGGGSVQAGGSLRLSCAASGDTYGSYWMGWFRQAPGQEREAVAAINRGGGYTVYADSVKGRFTISRDNAKNTLYLQMNSLRPDDTADYYCAASGVLGGLHEDWFNYWGQGTLVTVSS

hCEACAM5 ka (hCEACAM5): 1.3e+06 M⁻¹ s⁻¹ | hCEACAM5 kd (hCEACAM5): 0.0025 s⁻¹
B4: CEA#2: humanised NbCEA5 variant (S11L, A14P, K43Q, E44G, R45L, G47A, T73N, A74S, V78L, P84A, D85E, D89V) (protein)
VHH: EVQLVESGGGLVQPGGSLRLSCAASGDTYGSYWMGWFRQAPGQGLEAVAAINRGGGYTVYADSVKGRFTISRDNSKNTLYLQMNSLRAEDTAVYYCAASGVLGGLHEDWFNYWGQGTLVTVSS

Binding kinetics (SPR) ka (1/Ms), IL12Rβ2 [4]: 210000 M⁻¹ s⁻¹ | Binding kinetics (SPR) kd (1/s), IL12Rβ2 [4]: 0.00057 s⁻¹
B8: IL12Rb2#1: IL-12Rβ2 specific ligand competing Nanobody (protein)
VHH: EVQLVESGGRLVQAGDSLRLSCAASGRTFISYRMGWFRQAPGKEREFVAALRWSSSNIDYTYYADSVKGRFSISGDYAKNTVYLQMNSLKAEDTAVYYCAASTRWGVMESDTEYTSWGQGTLVTVSS
binding to CD4+ gated and CD8+ gated T cells [3]: low fluorescence signals to both CD4+ and CD8+ cells

Binding kinetics (SPR) ka (1/Ms), IL12Rβ2 [4]: 270000 M⁻¹ s⁻¹ | Binding kinetics (SPR) kd (1/s), IL12Rβ2 [4]: 0.0018 s⁻¹
B9: IL12Rb2#2: IL-12Rβ2 specific ligand competing Nanobody (protein)
VHH: EVQLVESGGRLVQAGDSLRLSCAASGRTFTSYRMGWFRQAPGKEREFVSALRWSSGNIDYTYYADSVKGRFSISGDYAKNTVYLQMNSLKAEDTAVYYCAASTRWGVMESDTEYTSWGQGTLVTVSS

— US20220242958A1, “BISPECIFIC NANOBODIES” (Ablynx N.V., priority 2013, published 2022)
